Assay results as given in patent US20260242478A1 (published 2026).

What was measured:
[1] = target: T1, anti-CD28 Fab (SEQ ID NOs: 696, 697); test: phage ELISA; biotinylated anti-CD28 Fab on neutravidin plate, clonal phage supernatant, anti-M13 HRP detection;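 note: crude supernatants of single phage clones picked after panning were screened for binding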
T1 construct: In the phage ELISA the Fab was biotinylated and captured on neutravidin coated plates

[2] = target: T1, anti-CD28 Fab (SEQ ID NOs: 696, 697); test: phage ELISA; biotinylated anti-CD28 Fab on neutravidin plate, wells pre-incubated with CD28 antigen as competitor, anti-M13 HRP detection
Description: After panning, phage infected bacteria were plated out and colonies picked into 96 well blocks. Clonal phage was then amplified and separated from bacterial cells via centrifugation.
Clonal phage were harvested as crude supematants and screened via standard ELISAs. […] Prior to the addition of clonal phage, wells were incubated with blocking buffer and CD28 antigen or blocking buffer alone. Without washing or aspirating, clonal phage supematants were then added to the wells and incubated for a short time. Wells were then washed followed by detection of bound phage using a horse radish conjugated anti-M13 antibody. Clonal phage of interest were then sent for sequence analysis.

[3] = target: T2, Anti-PSMA Fab (biotinylated (site not stated)); test: clonal phage ELISA on plate-captured biotinylated PSMA Fab, wells pre-incubated with PSMA antigen as competitor
T2 construct: Biotinylated PSMA Fab captured on neutravidin coated plates; also called 006 PSMA Fab

[4] = target: T2, Anti-PSMA Fab; test: clonal phage ELISA on plate-captured biotinylated PSMA Fab, blocking buffer alone
Description: (§1) Clonal phage were harvested as crude supernatants and screened via standard ELISAs. […] Prior to the addition of clonal phage. wells were incubated with blocking buffer and PSMA antigen or blocking buffer alone. Without washing or aspirating, clonal phage supernatants were then added to the wells and incubated for a short time. Wells were then washed followed by detection of bound phage using a horse radish conjugated anti-M13 antibody.

[5] = target: T3, Anti-PSMA Fab (biotinylated (site not stated)); test: clonal phage ELISA on captured biotinylated PSMA Fab pre-incubated with PSMA antigen as competitor, anti-M13 HRP detection
T3 construct: Biotinylated PSMA Fab captured on neutravidin plates in the phage ELISA; also called 006 PSMA Fab

[6] = target: T3, Anti-PSMA Fab; test: clonal phage ELISA on captured biotinylated PSMA Fab, anti-M13 HRP detection
Description: as §1

[7] = target: T4, PSMA Fab (biotinylated (site not stated)); test: clonal phage ELISA on captured PSMA Fab pre-incubated with PSMA antigen as competitor, anti-M13 HRP detection;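 note: crude clonal phage supernatants tested by ELISA, wells first treated with blocking buffer plus PSMA antigen, bound phage read out via HRP-linked anti-M13 antibody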
T4 construct: Biotinylated PSMA Fab captured on neutravidin plates for the clonal phage ELISA; also called Anti-PSMA Fab; 006 PSMA Fab

[8] = target: T4, PSMA Fab; test: clonal phage ELISA on biotinylated PSMA Fab captured on neutravidin, blocking buffer alone, anti-M13 HRP detection;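 note: clonal phage were tested as crude supernatants, and the signal reflects phage still bound to the wells after washing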
Description: as §1

T1 sequence (VH, as listed by the source, chain 1 of 2): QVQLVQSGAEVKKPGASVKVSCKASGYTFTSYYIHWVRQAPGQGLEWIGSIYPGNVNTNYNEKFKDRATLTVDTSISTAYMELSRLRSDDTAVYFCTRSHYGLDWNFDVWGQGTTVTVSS
T1 sequence (VL, as listed by the source, chain 2 of 2): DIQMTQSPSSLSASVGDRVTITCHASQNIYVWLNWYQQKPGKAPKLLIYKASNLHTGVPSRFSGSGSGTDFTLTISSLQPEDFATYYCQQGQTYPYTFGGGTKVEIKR

Binder | Phage binding ELISA signal, Anti-PSMA Fab in presence of PSMA antigen [5] | Phage binding ELISA signal, Anti-PSMA Fab [6] | Phage binding ELISA signal, Anti-PSMA Fab in presence of PSMA antigen [7] | Phage binding ELISA signal, Anti-PSMA Fab [8] | other results
YCAGMSTIQLWLKC (also called Peptide-94) [Phage-473] | – | – | – | – | Phage binding ELISA, Anti-CD28 Fab (SEQ ID NOs: 696, 697) signal [1]: 2.16; Phage binding ELISA, Anti-CD28 Fab signal in the presence of CD28 [2]: 0.09
LVSWCTPPWMCEGV (tested as crude clonal phage supernatant) [Phage-3961] | – | – | – | – | phage binding ELISA signal (Anti-PSMA Fab with PSMA) [3]: 0.131; Phage binding ELISA signal, Anti-PSMA Fab [4]: 0.818
YCAGHSHEYLAKCE (also called Peptide-98) [Phage-477] | – | – | – | – | Phage binding ELISA, Anti-CD28 Fab (SEQ ID NOs: 696, 697) signal [1]: 0.86; Phage binding ELISA, Anti-CD28 Fab signal in the presence of CD28 [2]: 0.06
MTDRCKPEWMCFGF [Phage-3989] | 0.142 | 0.677 | – | – | –
MATMCVPQWMCAGF (tested as crude clonal phage supernatant) [Phage-3965] | – | – | – | – | phage binding ELISA signal (Anti-PSMA Fab with PSMA) [3]: 0.141; Phage binding ELISA signal, Anti-PSMA Fab [4]: 0.814
QMSMCKPAWMCTGL [Phage-3973] | – | – | 0.0909 | 0.767 | –
LLIVCKPPWMCAGS [Phage-3990] | 0.0992 | 0.666 | – | – | –
YCAGHTEEHYVKCM (also called Peptide-96) [Phage-475] | – | – | – | – | Phage binding ELISA, Anti-CD28 Fab (SEQ ID NOs: 696, 697) signal [1]: 0.62; Phage binding ELISA, Anti-CD28 Fab signal in the presence of CD28 [2]: 0.07
FDGWCVPAWMCYPF (tested as crude clonal phage supernatant) [Phage-3962] | – | – | – | – | phage binding ELISA signal (Anti-PSMA Fab with PSMA) [3]: 0.0796; Phage binding ELISA signal, Anti-PSMA Fab [4]: 0.816
LSVECIPVWMCNGF [Phage-3979] | – | – | 0.0832 | 0.732 | –
DCPWLSGFSRPLLC (also called Peptide-93) [Phage-472] | – | – | – | – | Phage binding ELISA, Anti-CD28 Fab (SEQ ID NOs: 696, 697) signal [1]: 1.27; Phage binding ELISA, Anti-CD28 Fab signal in the presence of CD28 [2]: 0.07
VQTRCVPAWMCDGF [Phage-3971] | – | – | 0.0744 | 0.782 | –
ITRMCTPSWMCMSF (tested as crude clonal phage supernatant) [Phage-3964] | – | – | – | – | phage binding ELISA signal (Anti-PSMA Fab with PSMA) [3]: 0.078; Phage binding ELISA signal, Anti-PSMA Fab [4]: 0.814
TIQWCEPLWMCRGF (tested as crude clonal phage supernatant) [Phage-3957] | – | – | – | – | phage binding ELISA signal (Anti-PSMA Fab with PSMA) [3]: 0.0643; Phage binding ELISA signal, Anti-PSMA Fab [4]: 0.835
GGVMCRPMWMCAGF [Phage-3967] | – | – | 0.0836 | 0.81 | –
GFRTCVPSWMCTGF [Phage-3978] | – | – | 0.0906 | 0.734 | –
TAPWCQPRWMCDGF (tested as crude clonal phage supernatant) [Phage-3958] | – | – | – | – | phage binding ELISA signal (Anti-PSMA Fab with PSMA) [3]: 0.0701; Phage binding ELISA signal, Anti-PSMA Fab [4]: 0.828
EGGYCVPTWMCSGF (tested as crude clonal phage supernatant) [Phage-3960] | – | – | – | – | phage binding ELISA signal (Anti-PSMA Fab with PSMA) [3]: 0.0786; Phage binding ELISA signal, Anti-PSMA Fab [4]: 0.822
VVVQCIPEWMCNGF [Phage-3981] | 0.0683 | 0.729 | – | – | –
EAKWCTPQWMCGGF [Phage-3975] | – | – | 0.0703 | 0.756 | –
EWPICRPSWMCDDF [Phage-3994] | 0.0604 | 0.63 | – | – | –
SVMNCVPLRMCEGF [Phage-3991] | 0.0968 | 0.644 | – | – | –

Binder | Phage binding ELISA signal, Anti-PSMA Fab in presence of PSMA antigen [5] | Phage binding ELISA signal, Anti-PSMA Fab [6] | Phage binding ELISA signal, Anti-PSMA Fab in presence of PSMA antigen [7] | Phage binding ELISA signal, Anti-PSMA Fab [8] | other results
EIGACVPDWMCRGF [Phage-3968] | – | – | 0.0694 | 0.809 | –
EYRECVPDWMCSGF [Phage-3980] | – | – | 0.0722 | 0.731 | –
SYQLCKPEWMCHGW [Phage-3982] | 0.0692 | 0.715 | – | – | –
QQVRCVPDWMCSGF [Phage-3974] | – | – | 0.0755 | 0.762 | –
IAVKCMPAWMCVGI [Phage-3993] | 0.0897 | 0.632 | – | – | –
KHILCEPVWMCVGF [Phage-3984] | 0.0708 | 0.697 | – | – | –
STLLCTPEWMCFGM [Phage-3969] | – | – | 0.0553 | 0.789 | –
DARMCIPMWMCQAF [Phage-3977] | – | – | 0.0713 | 0.742 | –
ISAECRPPWMCIGF (tested as crude clonal phage supernatant) [Phage-3963] | – | – | – | – | phage binding ELISA signal (Anti-PSMA Fab with PSMA) [3]: 0.0626; Phage binding ELISA signal, Anti-PSMA Fab [4]: 0.815
NGPMCVPQWMCDGT [Phage-3986] | 0.0558 | 0.691 | – | – | –
GSVFCIPTWMCEQS (tested as crude clonal phage supernatant) [Phage-3966] | – | – | – | – | phage binding ELISA signal (Anti-PSMA Fab with PSMA) [3]: 0.07; Phage binding ELISA signal, Anti-PSMA Fab [4]: 0.813
AEMLCVPPWMCKAF (tested as crude clonal phage supernatant) [Phage-3959] | – | – | – | – | phage binding ELISA signal (Anti-PSMA Fab with PSMA) [3]: 0.0615; Phage binding ELISA signal, Anti-PSMA Fab [4]: 0.823
SYMRCEPEWMCSGL [Phage-3970] | – | – | 0.121 | 0.786 | –
YERMCSPEWMCWDF [Phage-3983] | 0.0861 | 0.704 | – | – | –
VFKMCVPMWMCQVS [Phage-3992] | 0.0687 | 0.635 | – | – | –
YCMGHSHEHIWKCL (also called Peptide-97) [Phage-476] | – | – | – | – | Phage binding ELISA, Anti-CD28 Fab (SEQ ID NOs: 696, 697) signal [1]: 0.87; Phage binding ELISA, Anti-CD28 Fab signal in the presence of CD28 [2]: 0.07
YCAGHMPQYEVKCL (also called Peptide-95) [Phage-474] | – | – | – | – | Phage binding ELISA, Anti-CD28 Fab (SEQ ID NOs: 696, 697) signal [1]: 0.22; Phage binding ELISA, Anti-CD28 Fab signal in the presence of CD28 [2]: 0.06
HVQRCVPQWMCVGF [Phage-3987] | 0.119 | 0.686 | – | – | –
PAQICMPAWMCHGF [Phage-3976] | – | – | 0.0646 | 0.754 | –
STPYCVPDWMCAGF [Phage-3988] | 0.0729 | 0.683 | – | – | –
DARLCTPLWMCTGF [Phage-3972] | – | – | 0.0622 | 0.781 | –
VENLCRPSWMCEGF [Phage-3985] | 0.112 | 0.696 | – | – | –
